Test results taken from paper PMC5732959, “BnaA.bZIP1 Negatively Regulates a Novel Small Peptide Gene, BnaC.SP6, Involved in Pollen Activity”.
Numbering of substitutions follows the chain as printed.

Columns and labels:
BnaA.bZIP1-His [1] = biological target: T1, BnaA.bZIP1-His (Brassica napus, UniProt A0A078IFD5 1-139); assay: EMSA; EMSA: 10 ul with 2 ul 5x EMSA/Gel-Shift Binding Buffer (Beyotime), 30 nM Cy5 probe, 30 min at 25 C; 6% native PAGE, 0.5x TBE pH 8.3, 4 C; details: protein: recombinant, tags: His, pET-32a fusion (N-terminal vector tag), blunt
T1 sequence: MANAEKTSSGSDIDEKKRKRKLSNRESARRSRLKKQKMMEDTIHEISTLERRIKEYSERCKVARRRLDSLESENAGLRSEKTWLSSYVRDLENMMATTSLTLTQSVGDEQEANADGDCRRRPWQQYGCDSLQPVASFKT

BnaA.bZIP1-His [2] = biological target: T1, BnaA.bZIP1-His; assay: competition; unlabeled probe at 200x, 400x, 800x reduces shift of Cy5-p59; EMSA: 10 ul with 2 ul 5x EMSA/Gel-Shift Binding Buffer (Beyotime), 30 nM Cy5 probe, 30 min at 25 C; 6% native PAGE, 0.5x TBE pH 8.3, 4 C; details: protein: recombinant; tags: His; pET-32a fusion (N-terminal vector tag); blunt

B1: p59 (dsDNA)
DNA 1: AACGAAAGCCACCTCACGTCGTGCTATTTTCGGTGTAACCTTAACGGTGGATCTTTAAA
DNA 2: TTTAAAGATCCACCGTTAAGGTTACACCGAAAATAGCACGACGTGAGGTGGCTTTCGTT
binding result (BnaA.bZIP1-His [1]; label: Cy5 (p59-CY5-F strand)): binds

B2: mp59 (dsDNA)
DNA 1: B1 DNA 1 with A16T, C17A, G18T, T19G, C20A
DNA 2: B1 DNA 2 with G40T, A41C, C42A, G43T, T44A
binding result (BnaA.bZIP1-His [1]; label: Cy5 (mp59-CY5-F strand)): no binding

B3: p59 unlabeled competitor (dsDNA)
DNA 1: B1 DNA 1
DNA 2: B1 DNA 2
binding result (BnaA.bZIP1-His [2]): binds
